Biological target: epidermal growth factor receptor variant III (EGFRvIII) on U87EGFRvIII cells (UniProt P00533)
Assay: cell-based or functional assay

**Q.** With “2173 CD28zeta CAR (EGFRvIII specific CAR) on transduced primary human T cells” as the substance, how does the % cytolysis (killing) of U87 VIII GFP target cells, xCELLigence eSight impedance read?
**A.** Its % cytolysis (killing) of U87 VIII GFP target cells, xCELLigence eSight impedance is 100%.

**Q.** What about the Human IFN-gamma release from CAR T cells co-cultured with U87 VIII GFP target cells (sandwich ELISA, E:T 10:3) of the same substance?
**A.** The Human IFN-gamma release from CAR T cells co-cultured with U87 VIII GFP target cells (sandwich ELISA, E:T 10:3) was 4750.
